According to patent publication US20260109763A1 (DENALI THERAPEUTICS, published 2026):
Where two headings read alike, the source gives them in different places.

T1: hPANP(76-178) (human, UniProt Q8IYJ0 76-178)
T1 construct: range 76-178; also called PIANP; PILRA-associated neural protein
T1 sequence (looked up): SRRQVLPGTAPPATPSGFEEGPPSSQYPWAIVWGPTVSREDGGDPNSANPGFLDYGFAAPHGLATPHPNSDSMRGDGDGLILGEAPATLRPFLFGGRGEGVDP

T2: hNPDC1(35-181) (human, UniProt Q9NQX5 35-181)
T2 construct: range 35-181; also called neural proliferation differentiation and control protein 1
T2 sequence (looked up): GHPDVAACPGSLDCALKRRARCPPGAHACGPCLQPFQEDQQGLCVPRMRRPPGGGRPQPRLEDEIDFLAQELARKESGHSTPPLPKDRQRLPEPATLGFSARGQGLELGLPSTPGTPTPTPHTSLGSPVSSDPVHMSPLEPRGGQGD

B1: Anti-PILRA antibody clone 7 (antibody, V domains shown)
VH: EVQLQQSGPELQRPGASVKLSCKASGYTFTEYYMYWVKQRPKQGLELMGRIDPEDGGTDYVEKFKNKATLTADTSSNTAYMQLSSLTSEDTATYFCASTIRGTVFVYWGQGTLVTVSS
VL: DIQMTQSPASLSASLGETVTIECRPSEDIYNGLAWYQQKPGESPQLLIYNANSLHTGVPSRFSGSGSGTQYSLKINSLQSEDVASYFCQQYYDYPLTFGSGTKLEIK
B2: human PILRA G78 extracellular domain (recombinant hPILRA ECD) (receptor)
chain: QPSGSTGSGPSYLYGVTQPKHLSASMGGSVEIPFSFYYPWELATAPDVRISWRRGHFHGQSFYSTRPPSIHKDYVNRLFLNWTEGQKSGFLRISNLQKQDQSVYFCRVELDTRSSGRQQWQSIEGTKLSITQAVTTTTQRPSSMTTTWRLSSTTTTTGLRVTQGKRRSDSWHISLETA
notes: also called hPILRA G78
B3: Reference Antibody #2 (antibody, human IgG1, kappa, L234A L235A, V domains shown)
VH: QVILKESGPGILQSSQTLSLTCSFSGFSLSTFGMGVGWIRQPSGKGLESLAHIWWDDDKFYNPALKSRLTISKDTSKSQVFLKIANVDTADIATYYCTRIEDYGSYFAYWGQGTTLTVSS
VL: DVQMNQSPSSLSASLGDPITITCHASQNIHVWLNWYQQRPGNIPRLLIYKASNLHTGVPSRFSGSGSGTGFTLTISSLQPEDIATYYCQQGQSYPYTFGGGTKLEIKR
B4: Anti-PILRA antibody clone 2 (antibody, human IgG1, kappa, L234A L235A, V domains shown)
VH: EVQLVESGGGLVQPGRSLRLSCAVSGFTFDDYAMHWVRQAPGKGLEWVSGFSWNSGSIGYPDSVKGRFTISRDNAKNSLYLQMNSLRAEDTAFYYCAKDKSISAAGRFDYWGQGTLVTVSS
VL: DIQMTQSPSSLSASVGDRVTITCQASRRINNYLNWYQQKPGKAPKLLIYDASNLETGVPSRFTGSGSGTDFTLTISSLQPEDIATYYCQQYDNLPLTFGGGTKVEIKR
notes: also called Ab; Clone 2; Ab.2

Experiments:
human PILRA G78 on cells [1] = target: T3, human PILRA G78 on cells (human, UniProt Q9UKJ1 20-303); assay: flow cytometry on HEK293 PILRA G78 cells without sialidase treatment
T3 construct: wild-type iMicroglia are R78/G78 heterozygous (said in the assay field); also called hPILRA; hPILRA G78
Method: (§1) PILRA 78G or PILRA 78R expressing HEK293 cells were treated with SialEXO (Genovis). […] It is a combination of two sialidases acting on α2-3, α2-6 and α2-8 linkages. […] Cells were then washed twice and incubated and stained with NucBlue Live Stain for 30 mins at RT.

human PILRA G78 on cells [2] = target: T3, human PILRA G78 on cells; assay: flow cytometry on PILRA G78 expressing HEK293 cells (FIG. 1D); HEK293 cells expressing PILRA G78
Method: (§2) PILRA G78 or R78 overexpressing HEK293 cells were stained with NucBlue Live cell stain for 30 mins at RT. […] Cell lines were run in duplicate to account for intra-variability, for a total of N=3. The same protocol was used for CHO-K1 cells expressing hPILRA G78.

human PILRA R78 on cells [3] = target: T4, human PILRA R78 on cells (human, UniProt Q9UKJ1 20-303); assay: flow cytometry on PILRA R78 expressing HEK293 cells (FIG. 1F); HEK293 cells expressing PILRA R78
T4 construct: also called hPILRA R78; PILRA 78R
Target sequence in this assay (Q9UKJ1 20-303 limits assumed): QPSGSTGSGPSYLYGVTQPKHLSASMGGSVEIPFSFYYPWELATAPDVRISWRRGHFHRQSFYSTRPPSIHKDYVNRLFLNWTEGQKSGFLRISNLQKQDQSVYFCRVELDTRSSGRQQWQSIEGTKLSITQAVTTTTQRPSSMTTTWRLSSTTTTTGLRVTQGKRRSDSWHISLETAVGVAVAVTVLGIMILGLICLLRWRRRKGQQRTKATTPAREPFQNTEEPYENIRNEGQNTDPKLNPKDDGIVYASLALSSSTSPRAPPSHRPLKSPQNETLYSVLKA
Method: as §2

human PILRA G78 on cells [4] = target: T3, human PILRA G78 on cells; assay: flow cytometry on PILRA G78 expressing CHO-K1 cells (FIG. 1H)
Target sequence in this assay (Q9UKJ1 20-303 R78G limits assumed): as the sequence (Q9UKJ1 20-303 limits assumed) above, with R59G counted along it
Method: as §2

human PILRA G78 on cells [5] = target: T3, human PILRA G78 on cells; assay: cell-based or functional assay
Target sequence in this assay (Q9UKJ1 20-303 R78G limits assumed): as the sequence (Q9UKJ1 20-303 limits assumed) above, with R59G counted along it

[6] = target: B2; assay: SPR, Biacore 8K; antibody captured via anti-human Fab, recombinant ECD injected; 1:1 fit;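 note: CM5 sensor chip, ECD analyte in threefold dilution series at 30 µL/min, 3 min association and 10 min dissociation, kon and koff fitted simultaneously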
Method: (§3) Antibodies were captured on Biacore™ Series S CM5 sensor chips immobilized with mouse anti-human Fab (human Fab capture kit from GE Healthcare) followed by injections of serial 3-fold dilutions of recombinant ECD reagents at a flow rate of 30 μL/min. Each sample was analyzed using a 3-minute association followed by a 10-minute dissociation. After each injection, the sensor chip was regenerated using a 5 0 mM glycine pH2.0 regeneration buffer. A 1:1 Languir model of simultaneous fitting of kₒₙ and koff was used for kinetics analysis.

[7] = target: T5, human PILRA R78 extracellular domain (recombinant) (human, UniProt Q9UKJ1 20-197); assay: as above
T5 construct: also called hPILRA R78
Method: as §3

[8] = target: T6, cynomolgus monkey PILRA extracellular domain (recombinant) (cynomolgus monkey); assay: as above
T6 construct: also called cynoPILRA; Cyno PILRA
T6 sequence (chain, as listed by the source limits assumed): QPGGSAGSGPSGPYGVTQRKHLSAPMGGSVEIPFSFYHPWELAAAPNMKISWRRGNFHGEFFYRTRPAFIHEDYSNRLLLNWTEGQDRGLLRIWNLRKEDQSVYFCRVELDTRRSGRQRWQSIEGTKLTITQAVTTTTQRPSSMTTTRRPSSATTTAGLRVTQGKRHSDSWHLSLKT
Method: as §3

[9] = target: T7, human PILRB extracellular domain (recombinant) (human, UniProt Q9UKJ0 20-191); assay: as above
T7 construct: also called hPILRB
T7 sequence (Q9UKJ0 20-191 limits assumed): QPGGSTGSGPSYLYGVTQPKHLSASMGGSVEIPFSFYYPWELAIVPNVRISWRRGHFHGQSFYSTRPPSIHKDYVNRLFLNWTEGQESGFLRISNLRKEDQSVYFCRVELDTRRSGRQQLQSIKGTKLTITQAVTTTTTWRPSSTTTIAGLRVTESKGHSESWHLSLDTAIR
Method: as §3

human PILRA G78 on cells [10] = target: T3, human PILRA G78 on cells; assay: flow cytometry on HEK293 cells expressing hPILRA G78
Target sequence in this assay (Q9UKJ1 20-303 R78G limits assumed): as the sequence (Q9UKJ1 20-303 limits assumed) above, with R59G counted along it
Method: Parental HEK293 cells were labeled with NucBlue Live ReadyProbes Reagent for 30 mins. […] Antibody binding to the cells was detected by FACS and median fluorescence intensity (MFI) was derived from data analysis performed with the FLOJO software (FIGS. 1A-1C).

human PILRA R78 on cells [11] = target: T4, human PILRA R78 on cells; assay: cell-based or functional assay
Target sequence in this assay (Q9UKJ1 20-303 limits assumed): as the sequence (Q9UKJ1 20-303 limits assumed) above

human PILRA R78 on cells [12] = target: T4, human PILRA R78 on cells; assay: flow cytometry on HEK293 PILRA R78 cells with sialidase treatment; with sialidase treatment
Target sequence in this assay (Q9UKJ1 20-303 limits assumed): as above
Method: as §1
(§4) Following the same protocol, sialidase treatment was also performed on HEK cells expressing PILRA R78.

human PILRA G78 on cells [13] = target: T3, human PILRA G78 on cells; assay: flow cytometry on HEK293 PILRA G78 cells with sialidase treatment
Method: as §1

human PILRA R78 on cells [14] = target: T4, human PILRA R78 on cells; assay: flow cytometry on HEK293 PILRA R78 cells without sialidase treatment; without sialidase treatment
Target sequence in this assay (Q9UKJ1 20-303 limits assumed): as above
Method: as §1, §4

hPANP(76-178) = target: T1, hPANP(76-178); assay: SPR (Biacore 8K): ligand injected over hPILRA ECD (300 nM) held by an anti-PILRA antibody captured on anti-human Fab; panel Ligand binding permitted, antibody not named
hNPDC1(35-181) = target: T2, hNPDC1(35-181); assay: as above
human PILRB on cells = target: T8, human PILRB on cells (human, UniProt Q9UKJ0 20-227); assay: flow cytometry, CHO cells expressing hPILRB, MFI as fold over isotype control
T8 construct: Expressed on CHO-K1 cells, or together with DAP12 on HEK293 cells (hPILRB-DAP12 OE HEK293); also called hPILRB; hPILRB-DAP12
T8 sequence (Q9UKJ0 20-227 limits assumed): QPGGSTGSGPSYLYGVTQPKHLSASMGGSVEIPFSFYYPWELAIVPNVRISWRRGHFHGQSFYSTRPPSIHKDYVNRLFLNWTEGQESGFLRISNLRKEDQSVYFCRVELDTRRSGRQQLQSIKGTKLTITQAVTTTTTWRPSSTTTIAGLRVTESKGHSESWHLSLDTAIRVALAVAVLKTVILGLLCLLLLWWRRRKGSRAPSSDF

[15] = target: T9, cynomolgus monkey PILRA on cells (cynomolgus monkey); assay: flow cytometry, CHO cells expressing cynoPILRA, MFI as fold over isotype control
T9 construct: Expressed on CHO-K1 cells; also called cynoPILRA; cyno PILRA
T9 sequence (chain, as listed by the source limits assumed): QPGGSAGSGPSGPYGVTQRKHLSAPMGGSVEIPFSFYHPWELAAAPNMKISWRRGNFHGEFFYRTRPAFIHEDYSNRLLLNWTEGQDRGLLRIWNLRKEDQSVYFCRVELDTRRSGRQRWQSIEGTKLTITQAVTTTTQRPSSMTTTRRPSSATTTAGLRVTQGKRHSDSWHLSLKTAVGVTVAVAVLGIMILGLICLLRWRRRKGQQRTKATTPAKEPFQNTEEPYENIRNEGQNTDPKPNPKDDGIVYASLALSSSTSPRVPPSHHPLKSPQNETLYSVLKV

[16] = target: T6, cynomolgus monkey PILRA extracellular …; assay: SPR, Biacore 8K, recombinant ECD
Method: as §3

[17] = target: T7, human PILRB extracellular domain …; assay: SPR, Biacore 8K, recombinant ECD
Method: as §3

human PILRA G78 on cells [18] = target: T3, human PILRA G78 on cells; assay: cell-based or functional assay; remark: listed apart in the source
Target sequence in this assay (Q9UKJ1 20-303 R78G limits assumed): as the sequence (Q9UKJ1 20-303 limits assumed) above, with R59G counted along it

human PILRA R78 on cells [19] = target: T4, human PILRA R78 on cells; assay: flow cytometry on PILRA R78 expressing HEK293 cells (FIG. 1F); flow cytometry titration on HEK293 cells overexpressing PILRA R78
Method: as §2

B1
EC50 (human PILRA G78 on cells [1]): 9.5 nM
EC50 (human PILRA G78 on cells [2]): 12.9 nM
EC50 (human PILRA R78 on cells [3]): 2.5 nM
EC50 (human PILRA G78 on cells [4]): 10 nM
pSTAT3 S727 induction, EC50 (nM) (human PILRA G78 on cells [5]): 18.6 nM
pSTAT3 S727 induction, Fold Over Background (human PILRA G78 on cells [5]): 26.6 fold
pSTAT3 Y705 induction, EC50 (nM) (human PILRA G78 on cells [5]): 13 nM
pSTAT3 Y705 induction, Fold Over Background (human PILRA G78 on cells [5]): 32.5 fold
Kd [6]: 1.2 nM
Kd [7]: 17 nM
Kd [8]: 4.8 nM
Kd [9]: 250 nM
EC50 (human PILRA G78 on cells [10]): 13 nM
pSTAT3 S727 induction, EC50 (nM) (human PILRA R78 on cells [11]): 10.7 nM
pSTAT3 S727 induction, Fold Over Background (human PILRA R78 on cells [11]): 28.9 fold
pSTAT3 Y705 induction, EC50 (nM) (human PILRA R78 on cells [11]): 5.38 nM
pSTAT3 Y705 induction, Fold Over Background (human PILRA R78 on cells [11]): 38.3 fold
EC50 (human PILRA R78 on cells [12]): 0.3 nM
EC50 (human PILRA G78 on cells [13]): 3.2 nM
EC50 (human PILRA R78 on cells [14]): 0.7 nM

B2
binding result (hPANP(76-178)): binds
binding result (hNPDC1(35-181)): binds

B3
binding result (human PILRB on cells): no binding (tested: 100 nM)
binding result [15]: no binding (tested: 100 nM)
binding result [16]: no binding
binding result [17]: no binding

B4
pSTAT3 Y705 induction, EC50 (nM) (human PILRA G78 on cells [18]): 1.45 nM
pSTAT3 Y705 induction, Fold Over Background (human PILRA G78 on cells [18]): 16 fold
Kd [6]: 0.69 nM
Kd [7]: 270 nM
Kd [8]: 1.7 nM
binding result [17]: no binding
EC50 (human PILRA G78 on cells [10]): 12.5 nM
EC50 (human PILRA R78 on cells [19]): 5.1 nM
